Data: patent US7244430 (CRUCELL HOLLAND B V, dated 2007)

T1: recombinantly expressed purified soluble WNV E protein (strain 382-99) (West Nile virus strain 382-99, UniProt Q9Q6P4 291-696)
T1 construct: also called recombinant WNV-E protein; truncated E protein; not shown: Myc tag and His tag
T1 sequence: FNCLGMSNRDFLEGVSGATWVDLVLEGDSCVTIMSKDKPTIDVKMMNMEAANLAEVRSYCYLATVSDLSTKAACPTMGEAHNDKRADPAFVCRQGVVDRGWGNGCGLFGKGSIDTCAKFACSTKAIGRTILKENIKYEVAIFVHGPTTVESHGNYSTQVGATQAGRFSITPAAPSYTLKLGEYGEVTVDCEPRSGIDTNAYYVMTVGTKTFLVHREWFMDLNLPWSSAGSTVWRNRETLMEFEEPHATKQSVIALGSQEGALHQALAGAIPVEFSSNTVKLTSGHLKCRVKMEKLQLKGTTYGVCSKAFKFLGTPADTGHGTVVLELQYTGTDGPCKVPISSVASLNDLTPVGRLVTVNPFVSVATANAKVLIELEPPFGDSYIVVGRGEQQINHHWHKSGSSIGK


Experiments:
[1] = biological target: T2, West Nile virus strain USA99b (strain 385-99) (West Nile virus strain 385-99 (USA99b)); assay: phage ELISA, coated whole inactivated WNV
T2 construct: mature; also called WNV; WN virus

[2] = biological target: T1, recombinantly expressed purified …; assay: phage ELISA, coated recombinant soluble WNV E protein
[3] = biological target: T1, recombinantly expressed purified …; assay: as above; remark: listed apart in the source
[4] = biological target: T3, mutant WNV-like particles K307E (West Nile virus strain 382-99, UniProt Q9Q6P4 291-791; Q9Q6P4 216-290); assay: ELISA on mutant VLP
T3 construct: also called mutant K307E

[5] = biological target: T4, mutant WNV-like particles A365V (West Nile virus strain 382-99, UniProt Q9Q6P4 291-791; Q9Q6P4 216-290); assay: ELISA on mutant VLP, normalized to wild-type VLP
T4 construct: also called mutant A365V

[6] = biological target: T5, WNV-like particles (wild-type VLP, strain 382-99 M and E proteins) (West Nile virus strain 382-99, UniProt Q9Q6P4 291-791; Q9Q6P4 216-290); assay: titration of purified IgM on VLPs
T5 construct: also called West Nile virus-like particles; WT

[7] = biological target: T6, mutant WNV-like particles T332K (West Nile virus strain 382-99, UniProt Q9Q6P4 291-791; Q9Q6P4 216-290); assay: ELISA on mutant VLP, normalized to wild-type VLP
T6 construct: also called mutant T332K

Row | Binder | OD 492 nm [1] [OD 492 nm] | OD 492 nm [2] [OD 492 nm] | other results
1 | SC04-289 (scFv) scFv: QMQLVQSGAEVKKPGESLRISCKGSGYSFTSNWITWVRQMPGKGLEWMGRIDPSDSYTNYSPSFQGHVTISADKSISTAYLQWSSLKASDTAMYYCARDVVGVGASDYYYYMDVWGKGTTVTVSSGTGGSGGTGSGTGGSTEIVLTQSPGTLSLSPGETATLSCRTSQSVSSSYLGWYQQKPGQAPRLLIYGASIRATGIPARFSGSGSGTEFTLTIDSLQSEDFAVYYCQQYNNWPPITFGQGTRLEIKR | 0.759 | 1.39 | –
2 | SC04-299 (scFv) scFv: EVQLVETGGGVVQPGRSLRLSCAASGFTFSGYAMHWVRQAPGKGLDWVAVISYDGSEKYSADSVKGRFTISRDNSKNTLYLQMNSLRAEDTAVYYCAKESGGPIWYKYYGVDVWGQGTTVTVSSGTGGSGGTGSGTGGSTSYVLTQPPSLSAAPRQRVTISCSGSSSNIGNYGVNWYQQLPGKAPKLLIYYDDLLPSGVSDRFSGSKSGTSASLAISGLQSEDEGDYYCAAWDDTLSAWVFGGGTKLTVLG | 1.07 | – | –
3 | SC04-271 (scFv) scFv: EVQLVETGAEVKKPGESLRISCKGSGYTFNNYWIGWVRQMPGKGLEWMGIIYPGDSDTRYSPSVQGHVTISADKSINTAYLQWSSLKASDTAVYYCARRPGYDYGFYYFDYWGQGTLVTVSSGTGGSGGTGSGTGGSTQSALTQPRSVSGSPGQSVTISCTGTSSDVGGYNYVSWYQHHPGKAPKLMIYDVSNRPLGVSNRFSGSKSGNTASLTISGLQAEDEADYYCSSYTSSSTYVFGTGTHLTVLS | 0.984 | 0.608 | –
4 | SC04-361 (scFv) scFv: EVQLVQSGAEVKKPGESLKISCKASGFSFSTYWIGWVRQMPGKGLEWMGIIYPADSDTRYSPSFQGQVTISADKSISTAYLQWSSLKASDTAMYYCARLRGPYYDFWNGYRETHDAFNVWGQGTMVTVSSGTGGSGGTGSGTGGSTDVVMTQSPDSLAVSLGERATINCKSSQNILDNSDNKNFLAWYQQKPGQPPKLLIYWASARESGVPDRFSGSGSGTDFTLTISSLQAEDVALYYCQQYYNTPITFGQGTRLEIKR | – | 0.076 | binding result [3]: no binding
5 | SC04-283 (scFv) scFv: EVQLVQSGAEVKKSGESLKISCKGSGYTFNTYWIGWVRQMPGKGLEWMGIIYPGDSDTIYSPSFQGQVTISADKSISTAYLQWSSLKASDSAMYYCARLTFRRGYSGSDSFLPPGDFDYWGQGTLVTVSSGTGGSGGTGSGTGGSTDIQMTQSPSTLSASVGDRVTITCRASQSISSWLAWYQQKPGKAPNLLIYAASSLQSGVPSRFSGSGSGTDFTLTISSLQPDDSATYYCQQYNTYPLTFGGGTKVEIKR | 1.21 | 0.074 | –
6 | SC04-325 (scFv) scFv: QMQLVQSGAEVKKPGSSVKVSCKASGDTFSSYAISWVRQAPGQGLEWMGGIFGTASYAQKFQGRVTITADESTSTAYMELSSLRSEDTAVYYCARGGMATTPGLDYWGQGTLVTVSSGTGGSGGTGSGTGGSTDIQLTQSPDSLAVSLGERATINCKSSQSVLYSSNNKNYLAWYQQKPGQPPKLLIYWASTRESGVPDRFSGSGSGTDFTLTISSLQAEDVAVYYCQQYYSTPLTFGQGTKVEIKR | – | 1.4 | –
7 | CR5080 (antibody, V domains shown) VH: QVTLKESGPTLVKPTQTLTLTCTFSGFSLSTSGVGVGWIRQPPGKALEWLAVIYWNDDKLYRPSLKSRLTITKDTSKNQVVLTMTKMDPVDTATYYCAHRHRYYDISGYYRLFSDAFDIWGQGTMVTVSS VL: QSVLTQPPSVSGAPGQRVTISCTGSSSNIGAGYDVHWYQQLPGTAPKLLIYGNSNRPSGVPDRFSGSKSGTSASLAITGLQAEDEADYYCQSYDSSLSGWAFGGGTKLTVLG | – | – | binding result [4]: no binding; % of wild-type binding [5]: ~37%
8 | SC04-353 (scFv) scFv: EVQLVQSGGGVVQPGRSLRLSCAASGFTFSNYAMHWVRQAPGKGLEWVAVISYDGGNKYYADSVKGRFTMSRDNSKNTLYLQMNSLRAEDTAVYYCARDFWSGYSMVDSYYYYMDVWGKGTTVTVSSGTGGSGGTGSGTGGSTETTLTQSPGTLSLSPGERATLSCRASQSVSNTFLAWYQQKPGQAPRLLIYGASSRATGIPDRFSGSGSGTDFTLTISRLEPEDFAAYYCQQYGSSLTFGPGTKVDIKR | – | 0.099 | binding result [3]: no binding
9 | SC04-374 (scFv) scFv: QVTLKESGPTLVKPTQTLTLTCTFSGFSLSTSGVGVGWIRQPPGKALEWLAVIYWNDDKLYRPSLKSRLTITKDTSKNQVVLTMTKMDPVDTATYYCAHRHRYYDISGYYRLFSDAFDIWGQGTMVTVSSGTGGSGGTGSGTGGSTQSVVTQPPSVSGAPGQRVTISCTGSSSNIGAGYDVHWYQQLPGTAPKLLIYGNSNRPSGVPDRFSGSKSGTSASLAITGLQAEDEADYYCQSYDSSLSGSVFGGGTKLTVLG | – | 1.36 | –
10 | CRM4374 (antibody, also called IgM form of CR4374) heavy: QITLKESGPTLVKPTQTLTLTCTFSGFSLSTSGVGVGWIRQPPGKALEWLAVIYWNDDKLYRPSLKSRLTITKDTSKNQVVLTMTKMDPVDTATYYCAHRHRYYDISGYYRLFSDAFDIWGQGTMVTVSSASAPTLFPLVSCENSPSDTSSVAVGCLAQDFLPDSITFSWKYKNNSDISSTRGFPSVLRGGKYAATSQVLLPSKDVMQGTDEHVVCKVQHPNGNKEKNVPLPVIAELPPKVSVFVPPRDGFFGNPRKSKLICQATGFSPRQIQVSWLREGKQVGSGVTTDQVQAEAKESGPTTYKVTSTLTIKESDWLSQSMFTCRVDHRGLTFQQNASSMCVPDQDTAIRVFAIPPSFASIFLTKSTKLTCLVTDLTTYDSVTISWTRQNGEAVKTHTNISESHPNATFSAVGEASICEDDWNSGERFTCTVTHTDLPSPLKQTISRPKGVALHRPDVYLLPPAREQLNLRESATITCLVTGFSPADVFVQWMQRGQPLSPEKYVTSAPMPEPQAPGRYFAHSILTVSEEEWNTGETYTCVVAHEALPNRVTERTVDKSTGKPTLYNVSLVMSDTAGTCY light: QSVLTQPPSVSGAPGQRVTISCTGSSSNIGAGYDVHWYQQLPGTAPKLLIYGNSNRPSGVPDRFSGSKSGTSASLAITGLQAEDEADYYCQSYDSSLSGSVFGGGTKLTVLGQPKAAPSVTLFPPSSEELQANKATLVCLISDFYPGAVTVAWKADSSPVKAGVETTTPSKQSNNKYAASSYLSLTPEQWKSHRSYSCQVTHEGSTVEKTVAPTECS | – | – | binding result [6]: binds
11 | CR4374 (antibody, also called CR374) heavy: not shown light: QSVLTQPPSVSGAPGQRVTISCTGSSSNIGAGYDVHWYQQLPGTAPKLLIYGNSNRPSGVPDRFSGSKSGTSASLAITGLQAEDEADYYCQSYDSSLSGSVFGGGTKLTVLGQPKAAPSVTLFPPSSEELQANKATLVCLISDFYPGAVTVAWKADSSPVKAGVETTTPSKQSNNKYAASSYLSLTPEQWKSHRSYSCQVTHEGSTVEKTVAPTECS | – | – | binding result [4]: no binding; % of wild-type binding [7]: ~75%
12 | SC04-311 (scFv) scFv: EVQLVQSGGGVVQPGRSLRLSCVASGFTFSKDAMHWVRQAPGKGLEWVAVISYDGSDKHYADSVKGRVTISRDNSRKTLYLRMDSLRAEDTALYYCARGYNSGHYFDYWGQGTLITVSSGTGGSGGTGSGTGGSTQSVLTQPPSVSAAPGQKVTISCSGTSSNIGDNYVSWYQHLPGTAPKLLIYDNNKRPSGIPDRFSGSKSGTSATLGVTGLQTGDEADYYCGTWDSSLTAVVFGGGTKLTVLG | 1.04 | 1.54 | –
